These results are taken from patent US20220213227A1 (published 2022).

One assay addresses T1, human CD20 on cells (human, UniProt P11836 1-297).
T1 sequence (looked up): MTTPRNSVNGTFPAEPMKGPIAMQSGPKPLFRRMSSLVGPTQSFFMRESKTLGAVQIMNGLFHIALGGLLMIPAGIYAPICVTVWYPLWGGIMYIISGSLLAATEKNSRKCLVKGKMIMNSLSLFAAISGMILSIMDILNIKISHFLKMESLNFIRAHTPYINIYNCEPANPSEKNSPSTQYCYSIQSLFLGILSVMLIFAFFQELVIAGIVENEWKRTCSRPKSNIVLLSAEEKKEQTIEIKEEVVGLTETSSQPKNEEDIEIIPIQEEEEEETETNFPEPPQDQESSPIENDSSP
Kind of assay: cell-based or functional assay.

A further assay deals with human HER2 on cells (human, UniProt P04626 23-1255). In words: cell-based or functional assay.
Assay [1] addresses T2, human CD3 gamma-epsilon-Fc fusion protein (human).
T2 construct: also called CD3 gamma-epsilon-Fc protein; human CD3gamma-epsilon-Fc construct
Kind of assay: SPR using the human CD3gamma-epsilon-Fc construct.

For assay [2], the target named is soluble extracellular region of cynomolgus monkey CD38 antigen fused to a 6-His-tag (cynomolgus monkey, UniProt Q5VAN0 45-301). In words: SPR.
For assay [3], the target named is T3, soluble extracellular region of human CD38 fused to a 6-His-tag (human, UniProt P28907 43-300).
T3 construct: Extracellular region = UniProt P28907 residues 43-300, with a 6-His-tag at the C-terminal end; also called human CD38 protein; human CD38 antigen
In words: SPR, antibody captured on protein G chip, equilibrium response vs concentration.

The target of the next assay is T4, human OX40 on cells (human, UniProt P43489 29-277).
T4 sequence (looked up): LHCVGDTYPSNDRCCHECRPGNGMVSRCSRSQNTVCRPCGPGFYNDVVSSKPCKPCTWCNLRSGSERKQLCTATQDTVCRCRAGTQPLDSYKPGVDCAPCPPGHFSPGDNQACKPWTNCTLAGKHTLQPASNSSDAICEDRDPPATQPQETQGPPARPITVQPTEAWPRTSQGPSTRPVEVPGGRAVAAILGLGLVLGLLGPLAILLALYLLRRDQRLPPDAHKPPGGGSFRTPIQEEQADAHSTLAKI
Kind of assay: cell-based or functional assay.

The target in assay [4] is T5, human EGFR on cells (human, UniProt P00533 25-1210). In words: cell-based or functional assay.
For assay [5], the target named is T5, human EGFR on cells. In words: cell-based or functional assay. This is another data set of the same source.

B1: CD3/CD20 BEAT (SP34 scFv H5/L65 with Rituximab FAB arm) (bispecific antibody)
VH: EVQLVESGGGLVQPGGSLRLSCAASGYTFTSYNMSWVRQAPGKGLEWVSAIYPGNGDTYYADSVKGRFTISRDNSKNTLYLQMNSLRAEDTAVYYCARSTYYGGDWYFNVWGQGTLVTVSS
VL: EVQLVESGGGLVQPGGSLRLSCAASGYTFTSYNMSWVRQAPGKGLEWIGAIYPGNGDTYYADSVKGRATLSADKSKNTAYLQMNSLRAEDTAVYYCARSTYYGGDWYFNVWGQGTLVTVSS
chain: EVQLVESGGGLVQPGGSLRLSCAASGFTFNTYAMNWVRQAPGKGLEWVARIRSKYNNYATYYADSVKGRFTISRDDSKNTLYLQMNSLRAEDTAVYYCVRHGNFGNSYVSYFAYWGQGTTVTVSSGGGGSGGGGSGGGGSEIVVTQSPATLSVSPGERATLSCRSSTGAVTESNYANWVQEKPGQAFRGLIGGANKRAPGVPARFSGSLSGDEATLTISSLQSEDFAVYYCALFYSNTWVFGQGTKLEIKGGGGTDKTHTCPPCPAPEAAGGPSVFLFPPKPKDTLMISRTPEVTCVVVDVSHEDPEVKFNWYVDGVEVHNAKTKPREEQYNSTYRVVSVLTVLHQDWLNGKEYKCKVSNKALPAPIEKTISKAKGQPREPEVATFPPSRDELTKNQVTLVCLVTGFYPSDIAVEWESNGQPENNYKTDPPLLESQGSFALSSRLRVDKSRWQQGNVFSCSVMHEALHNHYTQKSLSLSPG
On to B1, for which the “EC50 of T cell redirected killing of Raji cells (RDL-FACS)” value in the assay with human CD20 on cells was found to be 0.0376 nM.

B2: BEAT HER2/CD3-1 antibody (bispecific antibody, human IgG1, kappa, L234A L235A)
heavy: EVQLVESGGGLVQPGGSLRLSCAASGYTFTRYTMHWVRQAPGKGLEWIGYINPSRGYTYYADSVKGRFTLSTDKSKNTAYLQMSSLRAEDTAVYYCARYYDDHYCLDYWGQGTLVTVSSASTKGPSVFPLAPSSKSTSGGTAALGCLVKDYFPEPVTVSWNSGALTSGVHTFPAVLQSSGLYSLSSVVTVPSSSLGTQTYICNVNHKPSNTKVDKKVEPKSCDKTHTCPPCPAPEAAGGPSVFLFPPKPKDTLMISRTPEVTCVVVDVSHEDPEVQFKWYVDGVEVHNAKTKPREEQYNSTFRVVSVLTVLHQDWLNGKEYKCKVSNKALPAPIEKTISKTKGQPREPAVYTLPPSREEMTKNQVKLVCLVTGFYPSDIAVEWESSGQPENNYYTTPPMLDSDGSFSLVSWLNVDKSRWQQGNIFSCSVMHEALHNRFTQKSLSLSPGK
light: DIQLTQSPSSLSASVGDRVTITCRASSSVSYVAWYQQKPGKAPKRWIYDTSKLYSGVPSRFSGSGSGTDYTLTISSLQPEDFATYYCQQWSSNPPTFGQGTKVEIKRTVAAPSVFIFPPSDEQLKSGTASVVCLLNNFYPREAKVQWKVDNALQSGNSQESVTEQDSKDSTYSLSSTLTLSKADYEKHKVYACEVTHQGLSSPVTKSFNRGEC
chain: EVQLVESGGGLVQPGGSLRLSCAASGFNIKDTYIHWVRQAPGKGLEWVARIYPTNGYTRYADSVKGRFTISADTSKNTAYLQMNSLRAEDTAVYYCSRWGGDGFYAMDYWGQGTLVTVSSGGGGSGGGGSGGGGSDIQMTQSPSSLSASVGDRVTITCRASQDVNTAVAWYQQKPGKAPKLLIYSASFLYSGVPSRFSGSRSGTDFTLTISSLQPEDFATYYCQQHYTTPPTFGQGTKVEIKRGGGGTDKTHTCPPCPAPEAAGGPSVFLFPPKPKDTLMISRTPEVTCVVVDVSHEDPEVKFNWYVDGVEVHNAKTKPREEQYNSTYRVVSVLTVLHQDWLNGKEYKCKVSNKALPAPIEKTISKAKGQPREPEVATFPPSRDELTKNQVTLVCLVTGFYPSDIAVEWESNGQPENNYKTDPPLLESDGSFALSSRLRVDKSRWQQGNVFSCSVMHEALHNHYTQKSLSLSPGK
notes: also called HER2/CD3-1 bispecific antibody
In the case of B2, in the assay with human HER2 on cells, the “EC50 of T cell redirected killing of BT-474 cells (RDL-MTS)” value is 0.0006 nM, the “EC50 of T cell redirected killing of JIMT-1 cells (RDL-FACS)” value was found to be 0.0014 nM, the “EC50 of T cell redirected killing of JIMT-1 cells (RDL-MTS)” value worked out at 0.021 nM and the “EC50 of T cell redirected killing of MDA-MB-231 cells (RDL-FACS)” value stood at 0.08 nM. Moreover, in the assay with human HER2 on cells, the “EC50 of T cell redirected killing of MDA-MB-231 cells (RDL-MTS)” value is about 0.2 nM. Also, the binding result in assay [1] was “binds”.

B3: human 767 antibody (antibody, human IgG1, kappa, V domains shown)
VH: QVQLVESGGGLVQPGGSLRLSCAASGFTFSSYWMSWVRQAPGKGLEWVANIKQDGSEKYYVDSVKGRFTISRDNAKNSLYLQMNSLRAEDTAVYYCAREGRTGYFDYWGQGTLVTVSS
VL: QSVLTQPPSASGTPGQRVTISCSGSTSNIGTNYVYWYQQLPGTAPKLLIYRNDQRPSGVPDRFSGSKSGTSASLAISGLRSEDEADYYCAAWDDSRSGVYAFGTGTKVTVLR
notes: Human IgG1; also called clone 767 IgG1 antibody
Consider B3, for which the Kd – broadly, the equilibrium constant for the complex coming apart – is about 1200 nM in assay [2] and about 300 nM in assay [3].

B4: BEAT OX40/CD3 antibody (bispecific antibody, human IgG1, kappa, L234A L235A)
heavy: QVTLKESGPALVKPTQTLTLTCSFSGFSLSTSGMGVGWIRQPPGKALEWIAHIWWDDDKYYNTALKTRLTISKDTSKNQVVLTMTNMDPVDTATYYCARIDWDGFAYWGQGTLVTVSSASTKGPSVFPLAPSSKSTSGGTAALGCLVKDYFPEPVTVSWNSGALTSGVHTFPAVLQSSGLYSLSSVVTVPSSSLGTQTYICNVNHKPSNTKVDKKVEPKSCDKTHTCPPCPAPEAAGGPSVFLFPPKPKDTLMISRTPEVTCVVVDVSHEDPEVKFNWYVDGVEVHNAKTKPREEQYNSTYRVVSVLTVLHQDWLNGKEYKCKVSNKALPAPIEKTISKAKGQPREPAVYTLPPSRDELTKNQVKLVCLVTGFYPSDIAVEWESNGQPENNYYTTPPVLDSDGSFSLVSWLNVDKSRWQQGNVFSCSVMHEALHNHYTQKSLSLSPGK
light: EIVLTQSPATLSLSPGERATLSCRASSSVSYMHWYQQKPGQAPRPWIYATSNRATGIPARFSGSGSGTDYTLTISSLEPEDFAVYYCQQWSSNPWTFGQGTKVEIKRTVAAPSVFIFPPSDEQLKSGTASVVCLLNNFYPREAKVQWKVDNALQSGNSQESVTEQDSKDSTYSLSSTLTLSKADYEKHKVYACEVTHQGLSSPVTKSFNRGEC
chain: EVQLVESGGGLVQPGGSLRLSCAASGYTFTRYTMHWVRQAPGKGLEWIGYINPSRGYTYYADSVKGRFTLSTDKSKNTAYLQMSSLRAEDTAVYYCARYYDDHYCLDYWGQGTLVTVSSGGGGSGGGGSGGGGSGGGASDIQLTQSPSSLSASVGDRVTITCRASSSVSYVAWYQQKPGKAPKRWIYDTSKLYSGVPSRFSGSGSGTDYTLTISSLQPEDFATYYCQQWSSNPPTFGQGTKVEIKGGGGTDKTHTCPPCPAPEAAGGPSVFLFPPKPKDTLMISRTPEVTCVVVDVSHEDPEVQFKWYVDGVEVHNAKTKPREEQYNSTFRVVSVLTVLHQDWLNGKEYKCKVSNKALPAPIEKTISKTKGQPREPEVATFPPSREEMTKNQVTLVCLVTGFYPSDIAVEWESSGQPENNYNTDPPLLESDGSFALSSRLRVDKSRWQQGNIFSCSVMHEALHNRFTQKSLSLSPGK
With B4, in the assay with human OX40 on cells, the “EC50 of T cell redirected killing of stable recombinant CHO[OX40] cells (RDL-MTS)” value came to 0.5 nM.

B5: BEAT HER2/CD3-2 antibody (bispecific antibody, human IgG1, kappa, L234A L235A)
heavy: not shown
light: not shown
chain: EVQLVESGGGLVQPGGSLRLSCAASGYTFTRYTMHWVRQAPGKGLEWIGYINPSRGYTYYADSVKGRFTLSTDKSKNTAYLQMSSLRAEDTAVYYCARYYDDHYCLDYWGQGTLVTVSSGGGGSGGGGSGGGGSGGGASDIQLTQSPSSLSASVGDRVTITCRASSSVSYVAWYQQKPGKAPKRWIYDTSKLYSGVPSRFSGSGSGTDYTLTISSLQPEDFATYYCQQWSSNPPTFGQGTKVEIKGGGGTDKTHTCPPCPAPEAAGGPSVFLFPPKPKDTLMISRTPEVTCVVVDVSHEDPEVQFKWYVDGVEVHNAKTKPREEQYNSTFRVVSVLTVLHQDWLNGKEYKCKVSNKALPAPIEKTISKTKGQPREPEVATFPPSREEMTKNQVTLVCLVTGFYPSDIAVEWESSGQPENNYNTDPPLLESDGSFALSSRLRVDKSRWQQGNIFSCSVMHEALHNRFTQKSLSLSPGK
With B5, in the assay with human HER2 on cells, the “EC50 of T cell redirected killing of BT-474 cells (RDL-MTS)” value is 0.002 nM, the “EC50 of T cell redirected killing of JIMT-1 cells (RDL-MTS)” value amounted to 0.016 nM and the “EC50 of T cell redirected killing of MDA-MB-231 cells (RDL-MTS)” value was about 0.2 nM. For the same molecule, the binding result in assay [1] was “binds”.

B6: VECTIBIX (panitumumab)/hSP34 BEAT (bispecific antibody)
VH: QVQLQESGPGLVKPSETLSLTCTVSGGSVSSGDYYWTWIRQSPGKGLEWIGHIYYSGNTNYNPSLKSRLTISIDTSKTQFSLKLSSVTAADTAIYYCVRDRVTGAFDIWGQGTMVTVSS
VL: DIQMTQSPSSLSASVGDRVTITCQASQDISNYLNWYQQKPGKAPKLLIYDASNLETGVPSRFSGSGSGTDFTFTISSLQPEDIATYFCQHFDHLPLAFGGGTKVEIK
chain: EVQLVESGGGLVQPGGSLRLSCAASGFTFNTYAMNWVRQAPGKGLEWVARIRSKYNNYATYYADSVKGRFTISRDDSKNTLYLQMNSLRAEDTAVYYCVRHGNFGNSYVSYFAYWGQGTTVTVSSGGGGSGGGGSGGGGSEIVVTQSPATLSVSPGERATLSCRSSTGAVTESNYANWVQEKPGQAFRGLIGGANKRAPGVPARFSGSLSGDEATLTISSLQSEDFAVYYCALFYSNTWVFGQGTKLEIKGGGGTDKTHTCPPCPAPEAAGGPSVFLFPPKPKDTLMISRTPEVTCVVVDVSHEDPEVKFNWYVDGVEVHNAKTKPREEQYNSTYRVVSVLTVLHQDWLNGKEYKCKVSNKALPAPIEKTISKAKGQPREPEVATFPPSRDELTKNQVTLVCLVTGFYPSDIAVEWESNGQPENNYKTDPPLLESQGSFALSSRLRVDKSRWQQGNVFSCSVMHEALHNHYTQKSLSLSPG
With B6, in the assay with human EGFR on cells [4], the “EC50 of redirected T-cell lysis of A549 cells” value was 0.000613 nM and the “EC50 of redirected T-cell lysis of HCC827 cells (value of the text, differs from the table)” value was found to be 0.000156 nM. In addition, in the assay with human EGFR on cells [5], the “EC50 (X)/EC50 (HCC827), HCT116 cells” value was found to be 2.3 ratio; the “EC50 (X)/EC50 (HCC827), MCF7 cells” value came out at 4300 ratio; the “EC50 (X)/EC50 (HCC827), SW480 cells” value is 47.9 ratio; the “EC50 of redirected T-cell lysis of HCC827 cells” value was found to be 0.000146 nM. In addition, in the assay with human EGFR on cells [5], the “EC50 of redirected T-cell lysis of HCT116 cells” value was 0.000341 nM, the “EC50 of redirected T-cell lysis of MCF7 cells” value stood at 0.627 nM and the “EC50 of redirected T-cell lysis of SW480 cells” value came out at 0.00699 nM.

B7: BEAT CD20/CD3 (SP34) antibody (bispecific antibody)
heavy: QVQLQQPGAELVKPGASVKMSCKASGYTFTSYNMHWVKQTPGRGLEWIGAIYPGNGDTSYNQKFKGKATLTADKSSSTAYMQLSSLTSEDSAVYYCARSTYYGGDWYFNVWGAGTTVTVSAASTKGPSVFPLAPSSKSTSGGTAALGCLVKDYFPEPVTVSWNSGALTSGVHTFPAVLQSSGLYSLSSVVTVPSSSLGTQTYICNVNHKPSNTKVDKKVEPKSCDKTHTCPPCPAPEAAGGPSVFLFPPKPKDTLMISRTPEVTCVVVDVSHEDPEVQFKWYVDGVEVHNAKTKPREEQYNSTFRVVSVLTVLHQDWLNGKEYKCKVSNKALPAPIEKTISKTKGQPREPAVYTLPPSREEMTKNQVKLVCLVTGFYPSDIAVEWESSGQPENNYYTTPPMLDSDGSFSLVSWLNVDKSRWQQGNIFSCSVMHEALHNRFTQKSLSLSPGK
light: QIVLSQSPAILSASPGEKVTMETTCRASSSVSYIHWFQQKPGSSPKPWIYATSNLASGVPVRFSGSGSGTSYSLTISRVEAEDAATYYCQQWTSNPPTFGGGTKLEIKRTVAAPSVFIFPPSDEQLKSGTASVVCLLNNFYPREAKVQWKVDNALQSGNSQESVTEQDSKDSTYSLSSTLTLSKADYEKHKVYACEVTHQGLSSPVTKSFNRGEC
chain: not shown
In the case of B7, the “EC50 of T cell redirected killing of Daudi cells (RDL-FACS)” value with human CD20 on cells was found to be 0.025 nM.
